Assay results taken from patent publication US20100136664A1, “CARBOXIN […] FOR FLAMMULINA VELUTIPES” (MYCOMAGIC BIOTECHNOLOGY CO., LTD., priority 2008, published 2010).

Test system: Flammulina velutipes
Assay: Test for the function of Cbr sequence: growth of transformed strains on PDA plate medium containing carboxin
Format: cell-based
Details: ten transformed Flammulina velutipes strains (electroporation, pMush-A-mFvCbr) cultured in PDA plate medium containing 2 mg/ml carboxin for one week
Protocol: The vector for expressing mutant Cbr sequence is pMush-A vector containing GPD promoter (pGPD) and hygromycin resistance (hyg) marker. The mutant Cbr sequence preserved in mFvCbrAMV vector (FIG. 1B) and pMush-A vector were sliced with BamH I and Spe I, respectively. The mutant Cbr sequence (mFvCbr) was ligated to the corresponding sites in pMush-A vector using T4 DNA ligase. The constructed vector is called pMush-A-mFvCbr (FIG. 2B).
The mycelia of Flammulina velutipes were cultured in PDB medium at 25° C. for 1-2 weeks. The resulting mycelia were disrupted by a homogenizator and then treated with lysing enzyme solution containing lysing enzyme (Sigma, St. Louis, Mo., U.S.A.), mannitol and potassium phosphate buffer. The resulting mycelial fragments were dissolved in 100 μl electroporation buffer solution as the competent cells used in the electroporation. The well-prepared competent cells were added to the mutant Cbr DNA solution obtained from Example 2 and then placed on ice for 10 minutes. An electroporation was conducted for the resulting solution using Electro Cell Manipulator ECM 630 Electroporation System (BTX, San Diego, Calif., U.S.A.) to obtain transformed mycelia. […] Ten transformed strains were selected and cultured in PDA plate medium containing 2 mg/ml carboxin for one week. […]

B1: mutant Cbr DNA: Flammulina velutipes succinate dehydrogenase iron-sulfur protein gene with point mutation His238 to Leu (CAC→CTC), SEQ ID NO: 1 (nucleic acid)
DNA: ATGCAGTCCGTCGCCCGTCGTTTCTCTGCCGCCGCCGTGCGCCGTAGCTTTTCTACCACTTCTGTCGCGTTCCAGGCTACACCGCTCGAGAAGCCCGTGCTGAACAAGGAATTCAAGATTTACCGCTGGAATCCTGATGAGCCGGAGAAGAAACCGACGCTACAGAGCTACATAATCGACCTGAACCAGACAGGGCCAATGATTCTGGATGCTCTCATCAAGATTAAAAACGAAATCGACCCTACGCTTACCTTCAGACGAAGTTGTCGCGAGGGCATTTGCGGATCTTGTGCGAGAAAAATCGACGGGCAGAACACGTTGGCCTGTCTCTGCAGGATTGATAGGAATGCTGGGAAGGATTCGAAGATCTATCCCTTACCACACAGTGAGTGTCTCATCTGAGCTCTGCGTATCTGAGTGCTAACTTAGATTCCAGTGTACATCGTCAAGGACCTCGTACCGGATCTCACCTACTTCTACAAGCAGTACAAGTCTATCCAACCATACCTTCAGAACGACAACCCACCTGCGTCAGGTCTGTTCATTATTTTGCACCCTCCCCTTTGCTCGGCTTACCGAATCGCTTCTAGGTGAATTCCTCCAAACGCAAGATGACCGCAAGAAGCTCGACGGACTCTACGAGTGTATCCTTTGCGCGTGTTGTTCGACGTCTTGCCCTTCGTATTGGTGGAACCAAGACGAATACCTTGGACCCGCTACTTTGATGCAAGCATATCGCTGGATCGCCGACTCGAGAGTACGTTCTGCTCGTCGTATCATGTTTTATCTCATACTGATATACTCTTAGGACTCTTATGCCGCAGAACGCAAGGAAAAGCTCCAAAACGAGATGAGCATGTACCGATGCCTCACTATCTTCAACTGCTCGCGGACATGCCCCAAGGGTCTCAACCCCGCTGCCGCCATCGCGAAAATCAAGCTTGAGCTTGCGGCCGAGTAA
modifications: Flammulina velutipes
  growth of transformed strains in PDA plate medium containing carboxin (carboxin resistance): Four strains grew
